In patent publication EP4786495A1 (Nanjing Leads Biolabs Co., Ltd., dated 2026):

T1: human BDCA2 protein (Kactus Biosystems, Cat# BCA-HM402) (human, UniProt Q8WTT0 45-213)
T1 construct: also called Human BDCA2-His
T1 sequence: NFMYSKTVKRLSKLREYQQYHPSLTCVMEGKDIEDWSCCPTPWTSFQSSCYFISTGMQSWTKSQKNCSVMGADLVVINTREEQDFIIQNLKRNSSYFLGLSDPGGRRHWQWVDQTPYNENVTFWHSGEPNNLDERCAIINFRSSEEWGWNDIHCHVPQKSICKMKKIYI

T2: human APRIL protein (ACRO Biosystems, Cat. No.: APL-H52D1) (human, UniProt O75888 115-250, limits assumed)
T2 sequence (looked up): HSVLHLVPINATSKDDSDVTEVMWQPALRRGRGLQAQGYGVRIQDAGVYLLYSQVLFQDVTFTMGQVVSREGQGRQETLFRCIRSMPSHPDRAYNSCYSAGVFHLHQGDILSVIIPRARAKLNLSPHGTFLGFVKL


Columns and labels:
[1] = biological target: T1, human BDCA2 protein (Kactus Biosystems, …); experiment: BLI Octet RED96e, antibody captured on AHC sensor, BDCA2 100 nM in solution
[2] = biological target: T3, human BAFF protein (ACRO Biosystems, Cat. No.: BAF-H52D4) (human, UniProt Q9Y275 134-285); experiment: BLI Octet RED96e, protein captured on AHC sensor, BAFF 100 nM in solution
[3] = biological target: T1, human BDCA2 protein (Kactus Biosystems, …); experiment: BLI Octet RED96e, protein captured on AHC sensor, BDCA2 100 nM in solution
[4] = biological target: T2, human APRIL protein (ACRO Biosystems, …); experiment: BLI Octet RED96e, protein captured on AHC sensor, APRIL 100 nM in solution
[5] = biological target: T3, human BAFF protein (ACRO Biosystems, …); experiment: BLI Octet RED96e, protein captured on AHC sensor, BAFF 1.56-100 nM in solution
[6] = biological target: T2, human APRIL protein (ACRO Biosystems, …); experiment: BLI Octet RED96e, protein captured on AHC sensor, APRIL 1.56-100 nM in solution
[7] = biological target: T1, human BDCA2 protein (Kactus Biosystems, …); experiment: BLI Octet RED96e, fusion protein captured on AHC sensor, BDCA2 1.56-100 nM in solution

Kd [2] [nM] | Response (nm) [2] [nm] | koff [2] [s⁻¹] | kon [2] [M⁻¹ s⁻¹] | Kd [3] [nM] | Response (nm) [3] [nm] | koff [3] [s⁻¹] | kon [3] [M⁻¹ s⁻¹] | Kd [4] [nM] | Response (nm) [4] [nm] | koff [4] [s⁻¹] | kon [4] [M⁻¹ s⁻¹] | Binder | also measured
< 0.001 | 0.0284 | < 1e-07 | 300000 | < 0.001 | 0.444 | < 1e-07 | 172000 | 6.5 | 0.296 | 0.000643 | 99000 | control antibody litifilimab analogue (antibody, human IgG1, kappa, V domains shown, Anti-BDCA2 control antibody expressed in ExpiCHO-S cells) VH: DVQLVESGGGLVKPGGSLRLSCAASGFTFSTYTMSWVRQAPGKGLEWVATISPGDSFGYYYPDSVQGRFTISRDNAKNSLYLQMNSLRAEDTAVYYCTRDIYYNYGAWFAYWGQGTLVTVSS VL: DIQLTQSPSSLSASVGDRVTITCKASQSVDYDGDSYMNWYQQKPGKAPKLLIYAASTLESGVPSRFSGSGSGTDFTLTISSLQPEDFATYYCQQANEDPRTFGQGTKVEIKR | –
< 0.001 | 0.468 | < 1e-07 | 522000 | < 0.001 | 0.484 | < 1e-07 | 125000 | 0.0667 | 0.298 | 7.79e-05 | 1.17e+06 | bispecific fusion protein BI-9ND2-4GS4 (bispecific antibody, human IgG1, kappa) heavy: not shown light: ETVLTQSPATLSLSPGERATLSCRASSSVSYMYWFQQKPGQAPRLLIYSTSNLASGIPARFSGSGSGTDYTLTISSLEPEDFAVYYCQQRRNYPHTFGGGTKVEIKRTVAAPSVFIFPPSDEQLKSGTASVVCLLNNFYPREAKVQWKVDNALQSGNSQESVTEQDSKDSTYSLSSTLTLSKADYEKHKVYACEVTHQGLSSPVTKSFNRGEC | –
< 0.001 | 0.492 | < 1e-07 | 456000 | < 0.001 | 0.466 | < 1e-07 | 115000 | 0.275 | 0.339 | 0.000257 | 937000 | bispecific fusion protein BI-9ND2-2GS4 (bispecific antibody, human IgG1, kappa) heavy: not shown light: ETVLTQSPATLSLSPGERATLSCRASSSVSYMYWFQQKPGQAPRLLIYSTSNLASGIPARFSGSGSGTDYTLTISSLEPEDFAVYYCQQRRNYPHTFGGGTKVEIKRTVAAPSVFIFPPSDEQLKSGTASVVCLLNNFYPREAKVQWKVDNALQSGNSQESVTEQDSKDSTYSLSSTLTLSKADYEKHKVYACEVTHQGLSSPVTKSFNRGEC | –
< 0.001 | 0.487 | < 1e-07 | 489000 | < 0.001 | 0.473 | < 1e-07 | 117000 | 0.0944 | 0.327 | 9.99e-05 | 1.06e+06 | bispecific fusion protein BI-9ND2-3GS4 (bispecific antibody, human IgG1, kappa) heavy: not shown light: ETVLTQSPATLSLSPGERATLSCRASSSVSYMYWFQQKPGQAPRLLIYSTSNLASGIPARFSGSGSGTDYTLTISSLEPEDFAVYYCQQRRNYPHTFGGGTKVEIKRTVAAPSVFIFPPSDEQLKSGTASVVCLLNNFYPREAKVQWKVDNALQSGNSQESVTEQDSKDSTYSLSSTLTLSKADYEKHKVYACEVTHQGLSSPVTKSFNRGEC | –

Further lines, the binder ahead of its results:

Binder | Kd [2] [nM] | Response (nm) [2] [nm] | koff [2] [s⁻¹] | kon [2] [M⁻¹ s⁻¹] | Kd [3] [nM] | Response (nm) [3] [nm] | koff [3] [s⁻¹] | kon [3] [M⁻¹ s⁻¹] | Kd [4] [nM] | Response (nm) [4] [nm] | koff [4] [s⁻¹] | kon [4] [M⁻¹ s⁻¹] | also measured
anti-BDCA2 humanized antibody Hu37F2C6-8 (antibody, human IgG1, kappa, V domains shown) VH: QVQLVQSGAEVKKPGASVKVSCKASGYTFTDFAVHWVRQAPGQRLEWMGLIGTSSGSTNYNQKFQGRVTMTVDKSANTAYMELSSLRSEDTAVYYCARNGYYVGYYALDYWGQGTTVTVSS VL: ETVLTQSPATLSLSPGERATLSCRASSSVSYMYWFQQKPGQAPRLLIYSTSNLASGIPARFSGSGSGTDYTLTISSLEPEDFAVYYCQQRRNYPHTFGGGTKVEIKR | – | – | – | – | – | – | – | – | – | – | – | – | Kd [1]: < 0.001 nM; koff [1]: < 1e-07 s⁻¹; kon [1]: 113000 M⁻¹ s⁻¹
anti-BDCA2 humanized antibody Hu37F2C6-9 (antibody, human IgG1, kappa, V domains shown, also called humanized 37F2C6-9) VH: QVQLVQSGAEVKKPGASVKVSCKASGYTFTDFAVHWVRQAPGQRLEWMGLIGTSSGSTNYNQKFQGRATMTVDKSANTAYMELSSLRSEDTAVYYCARNGYYVGYYALDYWGQGTTVTVSS VL: ETVLTQSPATLSLSPGERATLSCRASSSVSYMYWFQQKPGQAPRLLIYSTSNLASGIPARFSGSGSGTDYTLTISSLEPEDFAVYYCQQRRNYPHTFGGGTKVEIKR | – | – | – | – | – | – | – | – | – | – | – | – | Kd [1]: < 0.001 nM; koff [1]: < 1e-07 s⁻¹; kon [1]: 121000 M⁻¹ s⁻¹
bispecific fusion protein BI-9D2-3GS4 (bispecific antibody, human IgG1, kappa) heavy: not shown light: ETVLTQSPATLSLSPGERATLSCRASSSVSYMYWFQQKPGQAPRLLIYSTSNLASGIPARFSGSGSGTDYTLTISSLEPEDFAVYYCQQRRNYPHTFGGGTKVEIKRTVAAPSVFIFPPSDEQLKSGTASVVCLLNNFYPREAKVQWKVDNALQSGNSQESVTEQDSKDSTYSLSSTLTLSKADYEKHKVYACEVTHQGLSSPVTKSFNRGEC | < 0.001 | 0.34 | < 1e-07 | 422000 | 0.234 | 0.551 | 3.58e-05 | 153000 | 0.616 | 0.251 | 0.000582 | 944000 | –
bispecific fusion protein BI-9D2-2GS4 (bispecific antibody, human IgG1, kappa) heavy: not shown light: ETVLTQSPATLSLSPGERATLSCRASSSVSYMYWFQQKPGQAPRLLIYSTSNLASGIPARFSGSGSGTDYTLTISSLEPEDFAVYYCQQRRNYPHTFGGGTKVEIKRTVAAPSVFIFPPSDEQLKSGTASVVCLLNNFYPREAKVQWKVDNALQSGNSQESVTEQDSKDSTYSLSSTLTLSKADYEKHKVYACEVTHQGLSSPVTKSFNRGEC | < 0.001 | 0.302 | < 1e-07 | 412000 | < 0.001 | 0.56 | < 1e-07 | 151000 | 0.391 | 0.242 | 0.000339 | 866000 | –
bispecific fusion protein BI-9D2-1GS4 (bispecific antibody, human IgG1, kappa) heavy: not shown light: ETVLTQSPATLSLSPGERATLSCRASSSVSYMYWFQQKPGQAPRLLIYSTSNLASGIPARFSGSGSGTDYTLTISSLEPEDFAVYYCQQRRNYPHTFGGGTKVEIKRTVAAPSVFIFPPSDEQLKSGTASVVCLLNNFYPREAKVQWKVDNALQSGNSQESVTEQDSKDSTYSLSSTLTLSKADYEKHKVYACEVTHQGLSSPVTKSFNRGEC | < 0.001 | 0.299 | < 1e-07 | 400000 | < 0.001 | 0.591 | < 1e-07 | 149000 | 0.724 | 0.261 | 0.000589 | 813000 | –
bispecific fusion protein BI-9NTACI-A (bispecific antibody, human IgG1, kappa, also called heavy chain 37F2C6-HuVH3-3N-TACI) heavy: not shown light: ETVLTQSPATLSLSPGERATLSCRASSSVSYMYWFQQKPGQAPRLLIYSTSNLASGIPARFSGSGSGTDYTLTISSLEPEDFAVYYCQQRRNYPHTFGGGTKVEIKRTVAAPSVFIFPPSDEQLKSGTASVVCLLNNFYPREAKVQWKVDNALQSGNSQESVTEQDSKDSTYSLSSTLTLSKADYEKHKVYACEVTHQGLSSPVTKSFNRGEC | – | – | – | – | – | – | – | – | – | – | – | – | Kd [5]: 0.951 nM; koff [5]: 0.000342 s⁻¹; kon [5]: 360000 M⁻¹ s⁻¹; Kd [6]: 0.619 nM; koff [6]: 0.000478 s⁻¹; kon [6]: 772000 M⁻¹ s⁻¹; Kd [7]: < 0.001 nM; koff [7]: < 1e-07 s⁻¹; kon [7]: 85400 M⁻¹ s⁻¹
bispecific fusion protein BI-9D2-3G4S-4S (bispecific antibody, human IgG1, kappa) heavy: not shown light: ETVLTQSPATLSLSPGERATLSCRASSSVSYMYWFQQKPGQAPRLLIYSTSNLASGIPARFSGSGSGTDYTLTISSLEPEDFAVYYCQQRRNYPHTFGGGTKVEIKRTVAAPSVFIFPPSDEQLKSGTASVVCLLNNFYPREAKVQWKVDNALQSGNSQESVTEQDSKDSTYSLSSTLTLSKADYEKHKVYACEVTHQGLSSPVTKSFNRGEC | < 0.001 | 0.358 | < 1e-07 | 382000 | < 0.001 | 0.457 | < 1e-07 | 155000 | 0.528 | 0.285 | 0.000435 | 824000 | –
bispecific fusion protein BI-9D2-3G4S-8S (bispecific antibody, human IgG1, kappa) heavy: not shown light: ETVLTQSPATLSLSPGERATLSCRASSSVSYMYWFQQKPGQAPRLLIYSTSNLASGIPARFSGSGSGTDYTLTISSLEPEDFAVYYCQQRRNYPHTFGGGTKVEIKRTVAAPSVFIFPPSDEQLKSGTASVVCLLNNFYPREAKVQWKVDNALQSGNSQESVTEQDSKDSTYSLSSTLTLSKADYEKHKVYACEVTHQGLSSPVTKSFNRGEC | < 0.001 | 0.394 | < 1e-07 | 402000 | < 0.001 | 0.476 | < 1e-07 | 154000 | 0.166 | 0.29 | 0.000134 | 808000 | –
